Measured values published in publication doi:10.1101/2022.01.30.478305 (bioRxiv, 2022).

Target: SARS-CoV-2 RBD-his (SARS-CoV-2, UniProt P0DTC2)
Assay: ELISA

B1: 16L9 (antibody, V domains shown)
VH: EVQLVESGGGLIQPGGSLRLSCAASGFTVSSNYMSWVRQAPGKGLEWVSVIYSGGSTYYADSVKGRFTISRDNSENTLYLQMNSLRAEDTAVYYCARGEIQPYYYYGMDVWGQGTTVTVSS
VL: QSVLTQPPSASGSPGQSVTISCTGTSSDFGGYNSVSWYQQHPGKAPKLMIYEVSKRPSGVPDRFSGSKSGNTASLTVSGLQAEDEADYYCSSYAGSNNFDVFGTGTKVTVL
B1: binds.
